Measured values taken from US20140289906A1, “Compositions Having Dicamba Decarboxylase Activity and Methods of Use” (priority 2013, published 2014).

Legend:
[1] = Enzyme kinetic characterization (kcat, KM, kcat/KM) of dicamba decarboxylase variants (Table 9)
[2] = 14C assay: 14CO2 capture from [14C]-carboxyl-labeled dicamba with IPTG-induced recombinant E. coli cells; conditions: dicamba decarboxylation activity
[3] = 14C assay: 14CO2 capture from [14C]-carboxyl-labeled dicamba with purified protein; type: biochemical
[4] = Dicamba decarboxylation activity of computationally designed protein variants and parents (Tables 4, 5); conditions: native proteins and designed variants; assay not specified
[5] = GC/MS detection of 2,5-dichloro anisole (2,5-DCA), toluene trapping or head-space; type: biochemical; conditions: purified protein, dicamba, toluene capturing
Experimental: Alternatively, dicamba decarboxylase activity can be monitored by measuring decarboxylation products other than CO2 using product detection methods. The decarboxylation product of dicamba, 2,5-dichloro anisole or 2,5-DCA (FIG. 1C), is a volatile compound with a flash point of 21° C. To capture this volatile compound for detection, 140 ul of toluene solution is added on top of 1 ml reaction mixture to form a trapping layer in a 1.5 ml eppendorf tube. […] The reaction is kept still at room temperature overnight before being vortex mixed and centrifuged at 14,000 rpm for 15 minutes. The top toluene phase is carefully removed using a micropipette and transferred into a 12×32 mm polypropylene vial (Vial 11 mm) from MicroLiter Analytical Supplies, Inc. (catalog number 11-5300-100). The vial is sealed with Crimp seal (11 mm with FEP/Nat Rubber) from MicroLiter Analytical Supplies, Inc. (catalog number 11-0020A) using a E-Z Crimper™ 11 mm from Wheaton Inc. 1 ul of the toluene mixture is taken from the sealed vials and injected in splitless mode into a GC/MS system for sample analysis (Agilent GC/MS system with a 6890A GC, a 5973N MSD and a CTC CombiPAL auto-sampler or with a 7890A GC, a 5975C MSD and an Agilent GC Sampler 80 auto-sampler). The GC parameters are: Agilent DB-5MS column (30 m length, 0.25 mm diameter, 0.25 um film) or equivalent; The GC inlet temperature, 250° C.; Carry gas, helium in constant flow mode (1.2 mL/min); The GC oven temperature program, initial temperature at 70° C. for 1 min, ramping to 200° C. at 15° C./min, and then ramping to 250° C. at 30° C./min. MS data acquisition is done in SIM (selected ion monitoring) mode, monitoring the positive ion at M/Z 176 for the molecular ion of […]. The solvent delay for MS acquisition is set at 4 min. Another method for detection of 2,5-DCA is a head-space GC/MS method. Briefly, reaction mixtures in 500 ul reaction volume are prepared in 1.5 ml 12×32 mm glass vials (Microliter Analytical Supplies, Cat#11-1200) for head space analysis. Glass vials are sealed with magnetic cap from MicroLiter Analytical Supplies, Inc. (catalog number 11-0030AT) using a E-Z Crimper™ 11 mm from Wheaton Industries Inc. The reaction is carried out at room temperature for various amount of time and stopped by heating at 95° C. for 5 min. The reaction vial is transferred to a agitator for incubation at 80° C. for 5 min at 500 rpm. With a syringe preheated at 80° C., 1000 uL of head space is injected with sample fill speed at 100 uL/sec. GC/MS parameters for headspace analysis are the same as for liquid sample analysis.

[6] = LC-MS/MS detection of 4-chloro-3-methoxy phenol; type: biochemical; conditions: purified protein, dicamba
[7] = GC/MS detection of 2,5-dichloro phenol (2,5-DCP); kinetic determination; type: biochemical; conditions: purified protein, dicamba

| Molecule | protein kinetic activity (substrate concentration versus reaction velocity) over SEQ ID NO:109 ([1]; FIG. 6) | Enzymatic Detection level [2] | kcat ([1]; substrate dicamba, purified protein) [s⁻¹] | CO2 product detected [3] | dicamba decarboxylase activity (statement in the description) [4] | 2,5-DCA product detected [5] | 4-chloro-3-methoxy phenol product detected [6] | 2,5-DCP product detected [7] |
| --- | --- | --- | --- | --- | --- | --- | --- | --- |
| 123 (protein, Dicamba decarboxylase variant clone S03902153) MAQGKVALEEHFAIPETLQDSAGFVPGDYWKELQHRLLDIQDTRLKLMDAHGIETMILSLAAPAVQAIPDRRKAIEIARRANDVLAEECAKRPDRFLAFAALPLQDPDAATEELQRCVNDLGFVGALVNGFSQEGDGQTPLYYDLPQYRPFWGEVEKLDVPFYLHPRNPLPQDSRIYDGHPWLLGPTWAFAQETAVHALRLMASGLFDEHPRLNIILGHMGEGLPYMMWRIDHRVAWVKLPPRYPAKRRFMDYFNENFHITTSGNFRTQTLIDAILEIGADRILFSTDWPFENIDHASDWFNATSIAEADRVKIGRTNARRLFKLDGA | improvement | High |  |  |  |  |  |  |
| 126 (protein, Dicamba decarboxylase variant clone S03970792) MAQGKVALEEHFAIPETLQDSAGFVPGDYWKELQHRLLDIQDTRLKLMDAHGIETMILSLAAPAVQAIPDRRKAIEIARRANDFLAEECAKRPDRFLAFAALPLQDPDAATEELQRCVNDLGFVGALVNGFSQEGDGQTPLYYDLPQYRPFWGEVEKLDVPFYLHPRNPLPQDSRIYDGHPWLLGPTWAFAQETAVHALRLMASGLFDEHPRLNIILGHMGEGLPYMMYRIDHRIAWVKLPPRYPAKRRFMDYFNENFHITTSGNFRTQTLIDAILEIGADRILFSTDWPFENIDHAADWFNATSIAEADRVKIGRTNARRLFKLDGA |  | High | 0.03967 |  |  |  |  |  |
| 122 (protein, Dicamba decarboxylase variant clone DC.12.103) MAIIDCHGHYTTTPKGVEDYRNAQKAAVAKDPSFKGEKGQVVVSDDEIRESIENNQLKMQRERGTDLTIFSPRSTAGGHHIGNEYTSQFWTEHQNDLIRRVCDLFPKNFAPVAQLPQSPGVDPAKSVPEIVRTVEQMGFIGINLNPDPSGGYWKDTSLADRAFYPIYEKMVEYDIPAMIHPRNACNDCFHTTGSHALGADTTGFQQLIMSDVFKDFPSLKIIIPHGGGAVPYHWGRFRGLMQDQGYAPLEESALKNIYFDTCVYHQRGIDLLLDIVPTQNILFASDMIGAVRGIDPETGHNFDDTKRYIDNNTALNAEEKAMIFEGNARRVFSRLKTD |  | High |  | not detected | have dicamba decarboxylase activity | detected | not detected | not detected |
